# Reference: patent publication US20220387417A1, “Pharmaceutical Combination and Use Thereof” (CSTONE PHARMACEUTICALS (SUZHOU) CO., LTD., priority 2019, published 2022)
# B1: Antibody 2E5: anti-PD-1 antibody (antibody N), heavy chain variable SEQ ID NO: 30, light chain variable SEQ ID NO: 31, human IgG4 constant region (antibody, V domains shown)
# VH: QVQLVQSGAEVKKPGSSVKVSCKASGFTFTTYYISWVRQAPGQGLEYLGYINMGSGGTNYNEKFKGRVTITADKSTSTAYMELSSLRSEDTAVYYCAIIGYFDYWGQGTMVTVSS
# VL: DVVMTQSPLSLPVTLGQPASISCRSSQSLLDSDGGTYLYWFQQRPGQSPRRLIYLVSTLGSGVPDRFSGSGSGTDFTLKISRVEAEDVGVYYCMQLTHWPYTFGQGTKLEIK
# modifications: human IgG4 constant region; heavy chain variable region; light chain variable region
# What was measured:
# [1] = system: subcutaneous MC38-hPD-L1 transplanted tumor; assay: Antibody 2E5 monotherapy or in combination with Lenvatinib mesylate on B-hPD-1 humanized mouse MC38-hPD-L1 colon cancer model: tumor volume, tumor weight, TGI, synergy score; assay type: in vivo; conditions: for Tumor volume (mm^3)/Mean ± SEM Day 17: 17th day after the start of treatment
# Procedure: Synergy score was calculated using the following formula described in Clarke R. Issues in experimental design and endpoint analysis in the study of experimental cytotoxic agents in vivo in breast cancer and other models[J]. Breast Cancer Research & Treatment, 1997, 46(2-3):255-278, which is incorporated by reference in its entirety:
# Synergy score=((A/C)×(B/C))/(AB/C);
# where A is RTV value of drug A; B is RTV value of drug B; C is RTV value of vehicle control; AB is RTV value of combination treatment with A and B respectively. • Synergy score>1 represents synergistic; • Synergy score=1 represents additive; • Synergy score<1 represents antagonistic.
# where V0 and Vt are the average tumor volume at the start of treatment (day 0) and the average tumor volume on a certain time point (day t).
# Mouse colon cancer cells MC38 were purchased from Shun Ran (Shanghai) Biotechnology Co., Ltd., and the cells were cultured in a 37° C., 5% CO2 incubator supplemented with Dulbecco's Modified Eagle's medium containing 10% inactivated fetal bovine serum. MC38 cells were genetically modified to overexpress human PD-L1 and knock out murine PD-L1, the modified cells were named as MC38-hPD-L1 cells.
# (§1) MC38-hPD-L1 tumor cells were resuspended in 1×PBS to a concentration of 5×10^5 cells per 0.1 mL. Each of the B-hPD-1 humanized mice was subcutaneously inoculated at the right lateral thorax region with 0.1 mL of the cell suspension. When the average tumor volume reached about 77 mm^3, the mice with moderate tumor volume were selected and randomly divided into 6 groups according to tumor volume, with 10 mice in each group, and the treatment was initiated on the same day.
# Tumor volume was measured 2-3 times a week in two dimensions using a caliper, and the volume was expressed in mm^3 using the formula: V=0.5 a×b^2 where a and b were the long and short diameters of the tumor, respectively.
# At the termination of the experiment, the animals were photographed to record the tumor bearing state after euthanasia, and the tumors of the mice were weighed and photographed.
# TGITV(%)=[1−(Ti−T0)/(Vi−V0)]×100%.
# Ti: tumor volume of the treatment group at day i following treatment; T0: tumor volume of the treatment group at day 0 following treatment; Vi: tumor volume of the control group at day i following treatment; V0: tumor volume of the control group at day 0 following treatment.
# At the termination of the experiment, the animals were euthanized, the tumors were separated and weighed, and the difference of tumor weight between each group was calculated. Tumor weight inhibition (TGITW) was calculated by the formula:
# TGITW (%)=(WC−WT)/[…]×100%; where We means tumor weight of control group, WT means tumor weight of treatment group.
# (§2) The original data measured and observed must be recorded. The original data was analyzed and the results were expressed by mean and standard error (Mean±SEM). The data of body weight, tumor volume and tumor weight was statistically analyzed using independent-samples t-test. All data were analyzed using SPSS, P<0.05 is considered to be statistically significant.
# [2] = Body weight of B-hPD-1 humanized mice bearing MC38-hPD-L1 tumors, Embodiment 2 (antibody 2E5 / Lenvatinib mesylate); assay type: in vivo, Mus musculus; conditions: for Weight (g)/Mean ± SEM Day 17: 17th day after the start of treatment; for Weight (g) Changes: Day 17 vs Day 0
# Procedure: as §1
# Animals were weighed 2-3 times a week before tumor inoculation, during animal grouping and the treatment, and before the euthanasia.
# as §2
# [3] = Antibody 2E5 1 mg/kg i.p., Lenvatinib mesylate 1 mg/kg p.o. QD (G2, G4, G5)
# [4] = Antibody 2E5 2 mg/kg i.p., Lenvatinib mesylate 1 mg/kg p.o. QD (G3, G6)
# [5] = Antibody 2E5 1 mg/kg, Lenvatinib mesylate 1 mg/kg (G2, G4, G5)
# [6] = Antibody 2E5 2 mg/kg, Lenvatinib mesylate 1 mg/kg (G3, G6)
molecule,measurement,setting,value
B1,Tumor volume (mm^3)/Mean ± SEM Day 17,[1]; [3],1195 ± 252 mm^3
same,Tumor volume (mm^3)/Mean ± SEM Day 17,[1]; [4],1302 ± 202 mm^3
same,Tumor volume (mm^3)/Mean ± SEM Day 0,[1]; [5],77 ± 2 mm^3
same,Tumor volume (mm^3)/Mean ± SEM Day 0,[1]; [6],77 ± 2 mm^3
same,Tumor weight (g) Mean ± SEM,"[1]; Day 17, Antibody 2E5 1 mg/kg, Lenvatinib mesylate 1 mg/kg (G2, G4, G5)",0.909 ± 0.186 g
same,Tumor weight (g) Mean ± SEM,"[1]; Day 17, Antibody 2E5 2 mg/kg, Lenvatinib mesylate 1 mg/kg (G3, G6)",1.080 ± 0.190 g
same,Tumor growth inhibition (%),"[1]; by tumor volume, Day 17, vs hIgG4 control, Antibody 2E5 1 mg/kg, Lenvatinib mesylate 1 mg/kg (G2, G4, G5)",56.4%
same,Tumor growth inhibition (%),"[1]; by tumor volume, Day 17, vs hIgG4 control, Antibody 2E5 2 mg/kg, Lenvatinib mesylate 1 mg/kg (G3, G6)",52.2%
same,Tumor growth inhibition (%),"[1]; tumor weight analysis (Table 21), Day 17, vs IgG4 control, Antibody 2E5 1 mg/kg, Lenvatinib mesylate 1 mg/kg (G2, G4, G5)",56.4%
same,Tumor growth inhibition (%),"[1]; tumor weight analysis (Table 21), Day 17, vs IgG4 control, Antibody 2E5 2 mg/kg, Lenvatinib mesylate 1 mg/kg (G3, G6)",48.2%
same,Weight (g)/Mean ± SEM Day 17,[2]; [3],28.6 ± 0.7 g
same,Weight (g)/Mean ± SEM Day 17,[2]; [4],27.8 ± 0.7 g
same,Weight (g)/Mean ± SEM Day 0,[2]; [3],24.9 ± 0.7 g
same,Weight (g)/Mean ± SEM Day 0,[2]; [4],25.0 ± 0.6 g
same,Weight (g) Changes,[2]; [5],+3.7 g
same,Weight (g) Changes,[2]; [6],+2.8 g
